According to US20240247080A1, “GLP1/GIP/NPY2 RECEPTOR TRIPLE AGONISTS” (Boehringer Ingelheim International GmbH, priority 2022, published 2024):
Starred links: 1 amine or outer side, 2 acyl side, 3 side chain; linkers in the order of their positions; H or OH if unused. Non-standard residues stand in square brackets, D forms with d. Groups on a side chain read outwards from the residue. No end group written: not given here. *: point of attachment. C20 diacid = O=C(O)CCCCCCCCCCCCCCCCCCC(=O)*; C18 diacid = O=C(O)CCCCCCCCCCCCCCCCC(=O)*; γGlu = O=C(O)[C@H](CCC(=O)[*:2])N[*:1]; εLys = N[C@@H](CCCCN[*:1])C(=O)[*:2]; AEEA = NCCOCCOCC(=O)O; Aib = CC(C)(N)C(=O)O

B1: Compound 3 (peptide)
peptide: YXEGTFTSDYSIXLEKQAQXAFVQWLIKGGQRSYASLRHYYNWLTRQRY
modifications: Aib at 2, 13, 20; K28 side chain: C20DA-gGlu-gGlu-gGlu-gGlu-gGlu-gGlu-eLys; C-terminal NH2
B2: Compound 18 (peptide)
peptide: YXEGTFTSDYSIXLEKQAQXAFVEWLIKGGPSSGASLRHYXNRXTRQRY
modifications: Aib at 2, 13, 20, 41, 44; K28 side chain: C20DA-gGlu-gGlu-gGlu-gGlu-gGlu-gGlu-eLys; C-terminal NH2
B3: Compound 19 (peptide)
peptide: YXEGTFTSDYSIXLEKQAQXAFVQWLIKGGPSYYVSLRHYYNWLTRQRY
modifications: Aib at 2, 13, 20; K28 side chain: C20DA-gGlu-gGlu-gGlu-gGlu-gGlu-gGlu-eLys; C-terminal NH2
B4: Compound 244 (peptide)
peptide: YXEGTFTSDYSIXLEKQAQXAFVEWLIKGGPSTGASLRHYYNWLTRQRY
modifications: Aib at 2, 13, 20; K28 side chain carries C20DA-gGlu-gGlu-gGlu-gGlu-gGlu-gGlu-eLys; C-terminal amide
B5: Compound 246 (peptide)
peptide: YXEGTFTSDYSIXLEKQAQXAFVQWLIKGGPSEGASLRHYYNWLTRQRY
modifications: Aib at 2, 13, 20; K28 side chain carries C18DA-gGlu-gGlu-gGlu-gGlu-gGlu-OEG-OEG; C-terminal amide
B6: Compound 249 (peptide)
peptide: YXEGTFTSDYSIXLEKQAQXAFVQWLIKGGPSEGASLRHYYNWLTRQRY
modifications: Aib at 2, 13, 20; K28 side chain carries C18DA-E-E-E-E-E-E-eLys (SEQ ID NO: 643); C-terminal amide
B7: Compound 250 (peptide)
peptide: YXEGTFTSDYSIXLEKQAQXAFVQWLIKGGPSEGASLRHYYNWLTRQRY
modifications: Aib at 2, 13, 20; K28 side chain carries C18DA-gGlu-gGlu-gGlu-gGlu-gGlu; C-terminal amide
B8: Compound 253 (peptide)
peptide: YXEGTFTSDYSIXLEKQAQXAFVEWLIKGGPSSGASLRHYYNWLTRQRY
modifications: Aib at 2, 13, 20; K28 side chain carries C18DA-gGlu-gGlu-gGlu-gGlu-gGlu; C-terminal amide
B9: Compound 255 (peptide)
peptide: YXEGTFTSDYSIXLEKQAQXEFVEWLIKGGPSEGASLRHYYNWLTRQRY
modifications: Aib at 2, 13, 20; K28 side chain carries C18DA-gGlu-gGlu-gGlu-gGlu-gGlu-gGlu-eLys; C-terminal amide
B10: Compound 257 (peptide)
peptide: YXEGTFTSDYSIXLEKQAQXAFVQWLIKGGPSEGASLRHYYNWLTRQRY
modifications: Aib at 2, 13, 20; K28 side chain carries C18DA-E-E-E-E-E (SEQ ID NO: 636); C-terminal amide

Tests used:
Assay in all cases: cell-based or functional assay
[1] = molecular target: T1, human neuropeptide Y2 (NPY2) receptor (human, UniProt P49146 1-381)
T1 sequence (looked up): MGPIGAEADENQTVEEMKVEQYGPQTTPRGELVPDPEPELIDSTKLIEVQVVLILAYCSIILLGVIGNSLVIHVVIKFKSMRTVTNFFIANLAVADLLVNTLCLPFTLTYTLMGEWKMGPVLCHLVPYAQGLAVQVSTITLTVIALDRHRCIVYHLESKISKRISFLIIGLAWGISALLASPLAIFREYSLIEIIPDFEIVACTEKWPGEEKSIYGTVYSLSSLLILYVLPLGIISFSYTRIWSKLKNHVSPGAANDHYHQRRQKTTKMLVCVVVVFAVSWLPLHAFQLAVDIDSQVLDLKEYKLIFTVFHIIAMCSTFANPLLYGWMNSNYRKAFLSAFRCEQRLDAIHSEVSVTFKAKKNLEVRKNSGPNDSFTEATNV

human GLP-1 receptor = human GLP-1 receptor (human, UniProt P43220 24-463)
human GIP receptor = molecular target: T2, human GIP receptor (human, UniProt P48546 22-466)
T2 sequence (looked up): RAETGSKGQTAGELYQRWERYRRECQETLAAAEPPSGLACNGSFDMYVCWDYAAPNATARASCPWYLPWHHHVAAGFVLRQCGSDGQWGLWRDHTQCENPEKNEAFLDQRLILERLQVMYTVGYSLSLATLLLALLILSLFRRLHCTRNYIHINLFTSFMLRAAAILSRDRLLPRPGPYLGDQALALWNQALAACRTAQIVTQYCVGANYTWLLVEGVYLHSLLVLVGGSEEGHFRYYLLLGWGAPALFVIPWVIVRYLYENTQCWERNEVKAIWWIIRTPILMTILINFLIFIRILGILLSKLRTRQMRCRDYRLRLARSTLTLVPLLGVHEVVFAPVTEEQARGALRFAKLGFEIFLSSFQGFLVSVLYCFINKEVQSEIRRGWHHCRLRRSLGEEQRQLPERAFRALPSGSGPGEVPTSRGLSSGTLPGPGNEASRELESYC

GLP-1 receptor = GLP-1 receptor (human (printed as hGLP1R), UniProt P43220 24-463)
GIP receptor = molecular target: T3, GIP receptor (human (printed as hGIPR), UniProt P48546 22-466)
T3 sequence (looked up): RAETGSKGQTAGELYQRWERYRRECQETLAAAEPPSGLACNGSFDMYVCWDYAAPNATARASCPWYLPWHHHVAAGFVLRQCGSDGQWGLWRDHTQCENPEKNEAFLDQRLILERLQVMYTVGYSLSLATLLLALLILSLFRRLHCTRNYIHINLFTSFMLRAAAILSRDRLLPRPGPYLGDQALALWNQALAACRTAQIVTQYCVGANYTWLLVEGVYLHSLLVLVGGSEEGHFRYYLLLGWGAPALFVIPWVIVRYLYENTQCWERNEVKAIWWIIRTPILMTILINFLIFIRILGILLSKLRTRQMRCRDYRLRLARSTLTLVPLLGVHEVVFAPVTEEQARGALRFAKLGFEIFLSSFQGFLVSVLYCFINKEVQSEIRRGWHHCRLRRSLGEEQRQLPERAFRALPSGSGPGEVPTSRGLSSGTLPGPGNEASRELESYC

NPY2 receptor = molecular target: T4, NPY2 receptor (human (printed as hNPY2R), UniProt P49146 1-381)
T4 sequence (looked up): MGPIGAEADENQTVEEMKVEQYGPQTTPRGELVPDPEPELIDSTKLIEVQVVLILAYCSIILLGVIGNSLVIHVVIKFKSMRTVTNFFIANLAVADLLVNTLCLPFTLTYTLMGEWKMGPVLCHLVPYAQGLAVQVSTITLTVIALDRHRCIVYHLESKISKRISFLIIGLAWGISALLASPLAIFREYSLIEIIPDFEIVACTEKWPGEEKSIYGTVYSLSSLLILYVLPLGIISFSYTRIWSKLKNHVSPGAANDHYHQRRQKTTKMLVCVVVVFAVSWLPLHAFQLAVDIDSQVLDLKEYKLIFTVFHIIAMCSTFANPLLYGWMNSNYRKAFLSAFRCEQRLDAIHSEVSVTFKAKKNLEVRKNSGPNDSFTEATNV

Binder | EC50, CreLuc assay, 0.5% hP [1] | EC50, CreLuc assay, 100% hP [1] | EC50, CreLuc assay, 0.5% hP (human GLP-1 receptor) | EC50, CreLuc assay, 100% hP (human GLP-1 receptor) | EC50, CreLuc assay, 0.5% hP (human GIP receptor) | EC50, CreLuc assay, 100% hP (human GIP receptor) | EC50 hGLP1R 0.5% hP (CreLuc) (GLP-1 receptor) | EC50 hGLP1R 100% hP (CreLuc) (GLP-1 receptor) | EC50 hGIPR 0.5% hP (CreLuc) (GIP receptor) | EC50 hGIPR 100% hP (CreLuc) (GIP receptor) | EC50 hNPY2R 0.5% hP (CreLuc) (NPY2 receptor) | EC50 hNPY2R 100% hP (CreLuc) (NPY2 receptor)
B1 | 4.45 nM | 23 nM | 0.45 nM | 14.4 nM | 0.53 nM | 6.56 nM | – | – | – | – | – | –
B2 | 85.7 nM | 224 nM | 0.12 nM | 1.94 nM | 0.36 nM | 1.98 nM | – | – | – | – | – | –
B3 | 9.41 nM | 19.3 nM | 0.5 nM | 10.2 nM | 0.61 nM | 6.5 nM | – | – | – | – | – | –
Y[Aib]EGTFTSDYSI[Aib]LEKQAQ[Aib]AFVQWLIK([εLys-γGlu-γGlu-γGlu-γGlu-γGlu-C20 diacid])GGPSEGASLRHYYNWLTRQRY-NH2 (also: TFA salt) [Compound 242] | – | – | – | – | – | – | 0.13 nM | 4.69 nM | 0.32 nM | 1.72 nM | 7.54 nM | 28.8 nM
Y[Aib]EGTFTSDYSI[Aib]LEKQAQ[Aib]AFVQWLIKGGPSEGASLRHYYNWLTRQRY-NH2 (not fully specified (residue 28); also: TFA salt) [Compound 243] | – | – | – | – | – | – | 0.12 nM | 5.96 nM | 0.54 nM | 2.97 nM | 9.16 nM | 50.6 nM
B4 | – | – | – | – | – | – | 0.19 nM | 5.98 nM | 0.32 nM | 2.32 nM | 13.5 nM | 58.3 nM
Y[Aib]EGTFTSDYSI[Aib]LEKQAQ[Aib]AFVQWLIKGGPSEGASLRHYYNWLTRQRY-NH2 (not fully specified (residue 28); also: TFA salt) [Compound 245] | – | – | – | – | – | – | 0.09 nM | 3.78 nM | 0.37 nM | 1.74 nM | 24.5 nM | 66.9 nM
B5 | – | – | – | – | – | – | 0.11 nM | 2.7 nM | 0.16 nM | 0.95 nM | 12.8 nM | 28.2 nM
Y[Aib]EGTFTSDYSI[Aib]LEKQAQ[Aib]AFIEWLIK([γGlu-γGlu-γGlu-γGlu-C18 diacid])GGPSEGASLRHYYNWLTRQRY-NH2 (also: TFA salt) [Compound 247] | – | – | – | – | – | – | 0.11 nM | 2.2 nM | 0.26 nM | 1.57 nM | 11.9 nM | 64.7 nM
Y[Aib]EGTFTSDYSI[Aib]LEKQAQ[Aib]AFVEWLIK([AEEA-AEEA-γGlu-γGlu-γGlu-C18 diacid])GGPEEGASLRHYYNWLTRQRY-NH2 (also: TFA salt) [Compound 248] | – | – | – | – | – | – | 0.25 nM | 8 nM | 0.12 nM | 0.79 nM | 18.7 nM | 48.4 nM
B6 | – | – | – | – | – | – | 0.13 nM | 1.78 nM | 0.19 nM | 1.25 nM | 17.8 nM | 50 nM
B7 | – | – | – | – | – | – | 0.08 nM | 2.03 nM | 0.2 nM | 1.25 nM | 12.2 nM | 37.4 nM
Y[Aib]EGTFTSDYSI[Aib]LEKQAE[Aib]AFVEWLIK([AEEA-AEEA-γGlu-γGlu-γGlu-γGlu-C18 diacid])GGPSEGASLRHYYNWLTRQRY-NH2 (also: TFA salt) [Compound 251] | – | – | – | – | – | – | 0.49 nM | 7.16 nM | 0.16 nM | 0.98 nM | 20.6 nM | 48.7 nM
Y[Aib]EGTFTSDYSI[Aib]LEKQAQ[Aib]AFVQWLIK([γGlu-γGlu-γGlu-γGlu-γGlu-γGlu-C18 diacid])GGPSEGASLRHYYNWLTRQRY-NH2 (also: TFA salt) [Compound 252] | – | – | – | – | – | – | 0.1 nM | 2.59 nM | 0.29 nM | 1.25 nM | 14.5 nM | 33.5 nM
B8 | – | – | – | – | – | – | 0.08 nM | 0.74 nM | 0.24 nM | 0.64 nM | 13.4 nM | 39.3 nM
Y[Aib]EGTFTSDYSI[Aib]LEKQAQ[Aib]AFVEWLIK([AEEA-AEEA-γGlu-γGlu-γGlu-γGlu-C18 diacid])GGPSSGASLRHYYNWLTRQRY-NH2 (also: TFA salt) [Compound 254] | – | – | – | – | – | – | 0.07 nM | 1.69 nM | 0.22 nM | 0.63 nM | 17.8 nM | 30.9 nM
B9 | – | – | – | – | – | – | 0.34 nM | 7.31 nM | 0.46 nM | 1.23 nM | 17.3 nM | 40.9 nM
Y[Aib]EGTFTSDYSI[Aib]LEKQAQ[Aib]AFVEWLIK([AEEA-AEEA-γGlu-γGlu-γGlu-γGlu-C18 diacid])GGPSEPASLRHYYNWLTRQRY-NH2 (also: TFA salt) [Compound 256] | – | – | – | – | – | – | 0.18 nM | 4.59 nM | 0.23 nM | 1.56 nM | 10.9 nM | 27 nM
B10 | – | – | – | – | – | – | 0.08 nM | 2.48 nM | 0.14 nM | 1.48 nM | 16.9 nM | 96.3 nM
Y[Aib]EGTFTSDYSI[Aib]LEKQAQ[Aib]AFIEWLIKGGPSEGASLRHYYNWLTRQRY-NH2 (not fully specified (residue 28); also: TFA salt) [Compound 258] | – | – | – | – | – | – | 0.17 nM | 2.52 nM | 0.16 nM | 1.23 nM | 22.3 nM | 72 nM
